Positions count from the first letter of the chain named. Several values for one entry are separate records, joined by “and”; a condition that tells them apart may be missing. Equal entries are not always repeated.

As a reminder, the IC50 is the concentration that inhibits the measured activity by half. A high value points to weaker potency. The Kd is the free concentration of one partner at which half of the binding sites on the other are occupied at equilibrium, for simple one-to-one binding. For orientation: koff means a measure of how fast the partners let go of each other. The low end stands for slow dissociation, the high end for fast dissociation. What is called kon is the rate constant with which the complex forms.

T1: human B7-H4 extracellular domain (human, UniProt Q7Z7D3 29-258)
T1 construct: For SPR it says only human B7-H4 ECD; also called Hu B7-H4 ECD; huB7-H4 ECD
T1 sequence: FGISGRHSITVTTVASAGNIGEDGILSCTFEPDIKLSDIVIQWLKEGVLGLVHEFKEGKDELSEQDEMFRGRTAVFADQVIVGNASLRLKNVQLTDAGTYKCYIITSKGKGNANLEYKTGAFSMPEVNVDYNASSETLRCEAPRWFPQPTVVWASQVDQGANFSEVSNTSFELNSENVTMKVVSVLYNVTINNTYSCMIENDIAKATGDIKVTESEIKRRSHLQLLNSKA

T2: human B7-H4 extracellular domain (human, UniProt Q7Z7D3 29-258)
T2 construct: Soluble ECD used as SPR analyte; also called huB7-H4 ECD; huB7-H4
T2 sequence: T1 sequence

B1: B7-H4 antibody 0383 (antibody, human IgG1, kappa, V domains shown)
VH: QVQLQQWGAGLLKPSETLPLTCAVYGGSFSGYYWNWIRQPPGKGLEWIGEINHSGSATYNPSLKSRVTISVDTSKNHFSLKLSSVTAADTAVYFCARGLYNWNVDHWGQGTLVTVSS
VL: DIQMTQSPSSLSASVGDRVTITCRASQGIRNDLGWYQQKPGKAPKRLIYAASSLQSGVPSRFSGSGSGTDFTLTISSLQPEDFATYYCLQHNAYPRTFGGGTKVEIKR
B2: B7-H4 antibody 0279 (antibody, human IgG1, kappa, V domains shown)
VH: EVQLVESGGGLVQPGGSLRLSCAVSGGSFSGYYWNWVRQAPGKGLEWIGEINHSGSATYNPSLKSRFTISVDTAKNSFYLQMNSLRAEDTAVYYCARGLYNWNVDHWGQGTLVTVSS
VL: B1 VL with D70E, A93S
B3: B7-H4 antibody 0270 (antibody, human IgG1, kappa, V domains shown)
VH: B1 VH with P19S, A57T, T58K, V71G, H77Q, S83N, F94Y, A96V, H106S
VL: B1 VL with A50V, A93S, R96Y, G100Q, V104L
B4: B7-H4 antibody 0283 (antibody, human IgG1, kappa, V domains shown)
VH: B1 VH
VL: B1 VL with A93S
B5: B7-H4 antibody 0384 (antibody, human IgG1, kappa, V domains shown)
VH: B1 VH
VL: B1 VL with N92S, A93S
B6: B7-H4 antibody 0390 (antibody, human IgG1, kappa, V domains shown)
VH: B1 VH
VL: B1 VL with N92Q, A93S, R96Y, G100Q, V104L
B7: B7-H4 antibody 0277 (antibody, human IgG1, kappa, V domains shown)
VH: B2 VH with V24A, I48V, G49A, V71R, T73N, F78L
VL: B1 VL with D70E, A93S
B8: B7-H4 antibody 0267 (antibody, human IgG1, kappa, V domains shown)
VH: B2 VH with V24A, A57T, T58K, V71G, T73N, A96V, H106S
VL: B1 VL with A50V, D70E, A93S, R96Y, G100Q, V104L
B9: B7-H4 antibody 0388 (antibody, human IgG1, kappa, V domains shown)
VH: B1 VH
VL: B1 VL with R96Y, G100Q, V104L
B10: B7-H4 antibody 0391 (antibody, human IgG1, kappa, V domains shown)
VH: B1 VH
VL: B1 VL with N92A, A93S, R96Y, G100Q, V104L
B11: B7-H4 antibody 0386 (antibody, human IgG1, kappa, V domains shown)
VH: B1 VH
VL: B1 VL with N92A, A93S
B12: B7-H4 antibody 0119 (antibody, human IgG1, kappa, V domains shown)
VH: EVQLLESGGGLVQPGGSLRLSCAASGFTFSSYAMSWVRQAPGKGLEWVSAISGGGGSTYYADSVKGRFTISRDNSKNTLYLQMNSLRAEDTAVYYCARDIQWFGESTLFDYWGQGTLVTVSS
VL: DIQMTQSPSSLSASVGDRVTITCRASQSIRSWLAWYQQKPGKAPKLLIYKASSLEGGVPSRFSGSGSGTDFTLTISSLQPEDFATYYCQQYNSYSRTFGQGTKVEIKR
B13: B7-H4 antibody 0564 (antibody, human IgG1, kappa, V domains shown)
VH: B12 VH with F103H
VL: B12 VL with M4L, S10T, Y36F, D70E, E81D
B14: B7-H4 antibody 0567 (antibody, human IgG1, kappa, V domains shown)
VH: B12 VH
VL: B12 VL with I29T, W32H, N92G
B15: B7-H4 antibody 0570 (antibody, human IgG1, kappa, V domains shown)
VH: B12 VH
VL: B12 VL with I29T, G56S, N92G
B16: B7-H4 antibody 0565 (antibody, human IgG1, kappa, V domains shown)
VH: B12 VH with E105R
VL: B12 VL with M4L, S10T, Y36F, D70E, E81D
B17: B7-H4 antibody 0414 (antibody, human IgG1, kappa, V domains shown)
VH: B12 VH
VL: B12 VL with I29T, N92G
B18: B7-H4 antibody 0563 (antibody, human IgG1, kappa, V domains shown)
VH: B12 VH with F103Y
VL: B12 VL with M4L, S10T, Y36F, D70E, E81D
B19: B7-H4 antibody 0562 (antibody, human IgG1, kappa, V domains shown)
VH: B12 VH with Y59Q
VL: B12 VL with M4L, S10T, Y36F, D70E, E81D
B20: B7-H4 antibody 1115 (antibody, human IgG1, kappa, V domains shown)
VH: B12 VH with F103Y
VL: B12 VL with I29T, G56S, N92G
notes: IgG1 mAb format
B21: B7-H4 antibody 1117 (antibody, human IgG1, kappa, V domains shown)
VH: B12 VH with F103Y
VL: B12 VL with I29T, Y36L, G56S, N92G
notes: IgG1 mAb format
B22: B7-H4 antibody 1113 (antibody, human IgG1, kappa, V domains shown)
VH: B12 VH with F103Y
VL: B12 VL with I29T, N92G
notes: IgG1 mAb format
B23: B7-H4 antibody 1116 (antibody, human IgG1, kappa, V domains shown)
VH: B12 VH with F103Y
VL: B12 VL with I29T, Y36H, G56S, N92G
notes: IgG1 mAb format
B24: B7-H4 antibody 1080 (antibody, human IgG1, kappa, V domains shown)
VH: B2 VH with V37I, A40P, F67V, F78L
VL: B1 VL
notes: IgG1 mAb format
B25: B7-H4 antibody 0934 (antibody, human IgG1, kappa, V domains shown)
VH: B2 VH with F67V, F78L
VL: B1 VL with N92S, A93S
notes: IgG1 mAb format
B26: B7-H4 antibody 1083 (antibody, human IgG1, kappa, V domains shown)
VH: B2 VH with V24A, V37I, A40P, F67V
VL: B1 VL
notes: IgG1 mAb format
B27: B7-H4 antibody 1081 (antibody, human IgG1, kappa, V domains shown)
VH: B2 VH with V37I, A40P, N52D, S54Q, A57T, T58K, F67V
VL: B1 VL
notes: IgG1 mAb format

One experiment has as its target T1, human B7-H4 extracellular domain. As to the kind of experiment: competition ELISA on coated huB7-H4 ECD; competitor biotinylated 0052 (by series, not given). (In general: In an ELISA, binding on a coated surface is turned into a signal by an enzyme label.)
Consider B1, for which the IC50 was determined as 7.17 nM.

B2: the concentration for half-maximal inhibition (IC50) was 5.94 nM and 14.9 nM.

B3 registered an IC50 of 9.07 nM.

With B4, the IC50 is 7.2 nM and 12.9 nM.

As for B5, the IC50 stood at 6.91 nM.

Consider B6, for which the IC50 was 15.2 nM.

As for B7, the half-inhibitory concentration (IC50) worked out at 19 nM.

The molecule B8 came in with an IC50 of 9.42 nM.

The molecule B9 registered a 50% inhibitory concentration (IC50) of 11.3 nM.

Take B10: the IC50 amounted to 13.6 nM.

Molecule B11 returned an IC50 of 9.2 nM.

Another experiment has the same target. As to the kind of experiment: competition ELISA on coated huB7-H4 ECD; competitor biotinylated 0058 (by series, not given).
As for B12, the IC50 was 7.52 nM and 13.7 nM.

Take B13: the IC50 turned out to be 35.2 nM.

On to B14, for which the IC50 was 5.4 nM.

The molecule B15 yielded an IC50 of 3.1 nM.

Turning to B16, the IC50 is 22.7 nM.

On to B17, for which the IC50 was 6.57 nM and 8 nM.

B18: the IC50 was 2 nM.

Regarding B19, the concentration for half-maximal inhibition (IC50) amounted to 2.4 nM.

The next experiment has as its target T2, human B7-H4 extracellular domain. As to the kind of experiment: SPR 37 C; IgG1 on anti-hFc chip, ECD analyte.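 Note: antibodies captured, then B7-H4 ECD injected at five 3-fold dilutions from 300 nM, 65 s association and 600 s dissociation, fitted to a 1:1 Langmuir model.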
As to B20, binding was put at a Kd of 2.62 nM, the koff came to 0.00116 s⁻¹ and the kon amounted to 443000 M⁻¹ s⁻¹.

B21 showed a Kd of 1.54 nM, a koff of 0.000949 s⁻¹ and a kon of 620000 M⁻¹ s⁻¹.

Turning to B22, the Kd amounted to 4.31 nM, the koff was determined as 0.00108 s⁻¹ and the kon was 251000 M⁻¹ s⁻¹.

The molecule B23 showed a Kd of 2.05 nM, a koff of 0.00126 s⁻¹ and a kon of 612000 M⁻¹ s⁻¹.

Molecule B24 returned a Kd of 13.8 nM, a koff of 0.0054 s⁻¹ and a kon of 392000 M⁻¹ s⁻¹.

Regarding B25, the Kd was 11.8 nM, the koff is 0.00539 s⁻¹ and the kon was determined as 454000 M⁻¹ s⁻¹.

B26: the affinity, expressed as Kd, was 22.6 nM; the koff was determined as 0.0086 s⁻¹; the kon came to 381000 M⁻¹ s⁻¹.

For B27, binding was characterised by a dissociation constant (Kd) of 33.4 nM, the koff turned out to be 0.00962 s⁻¹ and the kon stood at 288000 M⁻¹ s⁻¹.
